The target in one experiment is T1, p53 (UniProt P04637 1-393, limits assumed).
T1 construct: Endogenous protein in cell lysates
The experiment can be described thus: co-immunoprecipitation from cell lysate with septin-2 pull-down antibody, western blot. The procedure: (§1) For immunoprecipitation studies, two million SKOV3 WT and OVCAR-8 cells were seeded onto 100 mm dishes (Corning) and cultured to 80% confluency in complete DMEM media. Cells were rinsed in DPBS (Gibco), lysed, and quantified using Bradford assay. Lysates were adjusted to 1 μg/μl total protein concentration, with 500 μl lysate used for each IP reaction. Identical samples were prepared for pull-down antibody (Septin-2 or HE4) and isotype-matched IgG control (#3900, Cell Signaling), with antibody concentration identical at 40 ng/μl. Further processing and PAGE analysis of samples was conducted to resolve the bands. The resulting membranes were probed for HE4 or Septin-2, p21 or P53, B-tubulin and other proteins of interest.
A general note: A western blot detects proteins with antibodies after separation by electrophoresis.

The target in the next experiment is T2, β-tubulin (UniProt P07437 1-444).
T2 construct: Endogenous protein in cell lysates; also called B-tubulin
The experiment is described as above. The procedure: as §1

1 molecule from patent US20180188257A1 (UNIVERSITY OF ROCHESTER, published 2018) can be followed below.

T1 sequence (P04637 whole entry): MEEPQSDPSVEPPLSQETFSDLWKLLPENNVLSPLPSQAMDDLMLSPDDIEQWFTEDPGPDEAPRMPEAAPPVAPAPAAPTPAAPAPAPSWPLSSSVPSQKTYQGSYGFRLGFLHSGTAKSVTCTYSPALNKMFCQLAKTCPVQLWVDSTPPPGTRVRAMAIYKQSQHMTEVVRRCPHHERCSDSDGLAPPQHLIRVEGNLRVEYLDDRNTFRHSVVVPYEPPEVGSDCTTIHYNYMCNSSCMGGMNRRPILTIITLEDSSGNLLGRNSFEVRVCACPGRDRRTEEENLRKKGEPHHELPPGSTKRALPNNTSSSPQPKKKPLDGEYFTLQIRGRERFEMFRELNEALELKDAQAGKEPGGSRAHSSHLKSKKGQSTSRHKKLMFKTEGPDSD
T2 sequence (P07437 whole entry): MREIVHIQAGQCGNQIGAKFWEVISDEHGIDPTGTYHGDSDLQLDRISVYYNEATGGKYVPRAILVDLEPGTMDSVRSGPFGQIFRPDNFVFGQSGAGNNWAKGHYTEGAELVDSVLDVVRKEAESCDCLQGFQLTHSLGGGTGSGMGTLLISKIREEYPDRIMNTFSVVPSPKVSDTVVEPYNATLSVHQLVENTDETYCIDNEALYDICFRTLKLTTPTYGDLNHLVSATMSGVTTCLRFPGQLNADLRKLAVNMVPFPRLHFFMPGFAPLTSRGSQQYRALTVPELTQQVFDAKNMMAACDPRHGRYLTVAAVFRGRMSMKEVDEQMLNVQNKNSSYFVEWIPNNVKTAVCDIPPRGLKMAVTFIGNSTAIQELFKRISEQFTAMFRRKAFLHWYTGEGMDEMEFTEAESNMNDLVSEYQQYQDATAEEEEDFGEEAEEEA

B1: septin-2 (other)
chain: MSKQQPTQFINPETPGYVGFANLPNQVHRKSVKKGFEFTLMVVGESGLGKSTLINSLFLTDLYPERVIPGAAEKIERTVQIEASTVEIEERGVKLRLTVVDTPGYGDAINCRDCFKTIISYIDEQFERYLHDESGLNRRHIIDNRVHCCFYFISPFGHGLKPLDVAFMKAIHNKVNIVPVIAKADTLTLKERERLKKRILDEIEEHNIKIYHLPDAESDEDEDFKEQTRLLKASIPFSVVGSNQLIEAKGKKVRGRLYPWGVVEVENPEHNDFLKLRTMLITHMQDLQEVTQDLHYENFRSERLKRGGRKVENEDMNKDQILLEKEAELRRMQEMIARMQAQMQMQMQGGDGDGGALGHHV
notes: Endogenous protein in lysates of the ovarian cancer cell lines SKOV3 WT and OVCAR-8, pulled down with a septin-2 antibody
With B1, the binding result with p53 and with β-tubulin was “no binding” throughout.
